According to article PMC6851300, “Calcium-activated chloride channel regulator 1 (CLCA1) forms non-covalent oligomers in colonic mucus and has mucin 2–processing properties” (The Journal of Biological Chemistry, 2019):

Key:
[1] = biological target: C-terminal cleavage product of recombinant human CLCA1 in supernatant of transfected CHO-K1 cells (human) (UniProt A8K7I4); test: non-reducing SDS-PAGE with immunoblot; supernatant from hCLCA1-transfected CHO-K1 cells, reducing or nonreducing sample buffer, blotted with C terminus (3-ar) antibody; shows disulfide-linked species only
[2] = biological target: 250-kDa (nonreduced) fragment of MUC2-N after cleavage by rCLCA1, D′–D3 and CysD (human); test: non-reducing SDS-PAGE with SYPRO Ruby stain and immunoblot; recombinant MUC2-N with or without in vitro cleavage by rCLCA1 fractions (18 h, 37 C, 20 mM Tris-HCl pH 7.5, 150 mM NaCl, 10 mM CaCl2), separated without DTT; D3 (MUC2-N3) antibody
[3] = biological target: C-terminal cleavage product of mouse Clca1 in distal colon mucus and epithelium (mouse (endogenous in colon)) (UniProt Q9D7Z6); test: non-reducing SDS-PAGE with immunoblot; mucus and epithelial lysate from mouse distal colon or human sigmoid colon, denatured in SDS sample buffer without DTT (non-reduced) against with 100 mM DTT (reduced), blotted with C-terminal CLCA1 antibodies; shows disulfide-linked species only
[4] = biological target: Mouse Clca1 in colonic mucus and epithelial lysate (N- and C-terminal products) (mouse (endogenous in colon)) (UniProt Q9D7Z6); test: native gel or EMSA; NativePAGE Novex Bis-Tris 4-16% with G-250; mucus and epithelial lysates from human sigmoid colon, WT and Clca1-/- mouse colon and desalted medium with rCLCA1; blotted with N- or C-terminal CLCA1 antibodies
[5] = biological target: Human CLCA1 in sigmoid colon mucus and epithelial lysate (N- and C-terminal products) (human (endogenous in sigmoid colon)) (UniProt A8K7I4); test: as above
[6] = biological target: C-terminal cleavage product of human CLCA1 in sigmoid colon mucus and epithelium (human (endogenous in sigmoid colon)) (UniProt A8K7I4); test: non-reducing SDS-PAGE with immunoblot; mucus and epithelial lysate from mouse distal colon or human sigmoid colon, denatured in SDS sample buffer without DTT (non-reduced) against with 100 mM DTT (reduced), blotted with C-terminal CLCA1 antibodies; shows disulfide-linked species only
[7] = biological target: Recombinant human CLCA1 in spent supernatant of rCLCA1-expressing CHO-K1 cells (N- and C-terminal products) (human) (UniProt A8K7I4); test: native gel or EMSA; NativePAGE Novex Bis-Tris 4-16% with G-250; mucus and epithelial lysates from human sigmoid colon, WT and Clca1-/- mouse colon and desalted medium with rCLCA1; blotted with N- or C-terminal CLCA1 antibodies
[8] = biological target: the molecule itself; test: non-reducing SDS-PAGE with immunoblot; supernatant from hCLCA1-transfected CHO-K1 cells, reducing or nonreducing sample buffer, blotted with C terminus (3-ar) antibody; shows disulfide-linked species only

Molecule: C-terminal cleavage product of recombinant human CLCA1 in supernatant of transfected CHO-K1 cells (from UniProt A8K7I4 22-914) (domain or fragment)
- stoichiometry N [1]: 2

Molecule: 250-kDa (nonreduced) fragment of MUC2-N after cleavage by rCLCA1, D′–D3 and CysD (domain or fragment)
- stoichiometry N [2]: 3

Molecule: C-terminal cleavage product of mouse Clca1 in distal colon mucus and epithelium (from UniProt Q9D7Z6 22-913) (domain or fragment)
- stoichiometry N [3]: 2

Molecule: Mouse Clca1 in colonic mucus and epithelial lysate (N- and C-terminal products) (from UniProt Q9D7Z6 22-913; Q9D7Z6 22-913) (complex)
- stoichiometry N [4]: 8

Molecule: Human CLCA1 in sigmoid colon mucus and epithelial lysate (N- and C-terminal products) (from UniProt A8K7I4 22-914; A8K7I4 22-914) (complex)
- stoichiometry N [5]: 8

Molecule: C-terminal cleavage product of human CLCA1 in sigmoid colon mucus and epithelium (from UniProt A8K7I4 22-914) (domain or fragment)
- stoichiometry N [6]: 2

Molecule: Recombinant human CLCA1 in spent supernatant of rCLCA1-expressing CHO-K1 cells (N- and C-terminal products) (from UniProt A8K7I4 22-914; A8K7I4 22-914) (complex)
- stoichiometry N [7]: 8

B1: Uncleaved recombinant human CLCA1 secreted from transfected CHO-K1 cells (natural protein, UniProt A8K7I4 22-914, looked up)
chain: NSLIQLNNNGYEGIVVAIDPNVPEDETLIQQIKDMVTQASLYLLEATGKRFYFKNVAILIPETWKTKADYVRPKLETYKNADVLVAESTPPGNDEPYTEQMGNCGEKGERIHLTPDFIAGKKLAEYGPQGRAFVHEWAHLRWGVFDEYNNDEKFYLSNGRIQAVRCSAGITGTNVVKKCQGGSCYTKRCTFNKVTGLYEKGCEFVLQSRQTEKASIMFAQHVDSIVEFCTEQNHNKEAPNKQNQKCNLRSTWEVIRDSEDFKKTTPMTTQPPNPTFSLLQIGQRIVCLVLDKSGSMATGNRLNRLNQAGQLFLLQTVELGSWVGMVTFDSAAHVQNELIQINSGSDRDTLAKRLPAAASGGTSICSGLRSAFTVIRKKYPTDGSEIVLLTDGEDNTISGCFNEVKQSGAIIHTVALGPSAAQELEELSKMTGGLQTYASDQVQNNGLIDAFGALSSGNGAVSQRSIQLESKGLTLQNSQWMNGTVIVDSTVGKDTLFLITWTMQPPQILLWDPSGQKQGGFVVDKNTKMAYLQIPGIAKVGTWKYSLQASSQTLTLTVTSRASNATLPPITVTSKTNKDTSKFPSPLVVYANIRQGASPILRASVTALIESVNGKTVTLELLDNGAGADATKDDGVYSRYFTTYDTNGRYSVKVRALGGVNAARRRVIPQQSGALYIPGWIENDEIQWNPPRPEINKDDVQHKQVCFSRTSSGGSFVASDVPNAPIPDLFPPGQITDLKAEIHGGSLINLTWTAPGDDYDHGTAHKYIIRISTSILDLRDKFNESLQVNTTALIPKEANSEEVFLFKPENITFENGTDLFIAIQAVDKVDLKSEISNIARVSLFIPPQTPPETPSPDETSAPCPNIHINSTIPGIHILKIMWKWIGELQLSIA
modifications: glycosylated
notes: human CLCA1, full-length construct, not cut at the self-cleavage site (120 kDa); also called uncleaved rCLCA1; uncleaved CLCA1; source: CHO-K1, transfected, in supernatant
- stoichiometry N [8]: 2
